From article PMC5221731

Target: N-terminally hexahistidine-tagged wildtype Chinese hamster BiP, unmodified (non-AMPylated) (Chinese hamster) (UniProt G3I8R9)
Experiment: native gel or EMSA

A stoichiometry N of 2 was found for “N-terminally hexahistidine-tagged wildtype Chinese hamster BiP, unmodified (non-AMPylated) (from UniProt G3I8R9 19-654) (natural protein)” in this work.
